Test results: patent publication US20100029702A1, “Method For Identification of Compound Having Anti-Anxiety Effect” (priority 2006, published 2010)

Biological target: T1, ph01207 gene product (Homo sapiens, UniProt O60241, DEL308-362)
T1 construct: oocytes expressing the gene (ph01207 cDNA clones); expressed in transfected cells; host or cells: Xenopus laevis oocytes
T1 sequence (O60241 with tags, fused parts or gaps DEL308-362): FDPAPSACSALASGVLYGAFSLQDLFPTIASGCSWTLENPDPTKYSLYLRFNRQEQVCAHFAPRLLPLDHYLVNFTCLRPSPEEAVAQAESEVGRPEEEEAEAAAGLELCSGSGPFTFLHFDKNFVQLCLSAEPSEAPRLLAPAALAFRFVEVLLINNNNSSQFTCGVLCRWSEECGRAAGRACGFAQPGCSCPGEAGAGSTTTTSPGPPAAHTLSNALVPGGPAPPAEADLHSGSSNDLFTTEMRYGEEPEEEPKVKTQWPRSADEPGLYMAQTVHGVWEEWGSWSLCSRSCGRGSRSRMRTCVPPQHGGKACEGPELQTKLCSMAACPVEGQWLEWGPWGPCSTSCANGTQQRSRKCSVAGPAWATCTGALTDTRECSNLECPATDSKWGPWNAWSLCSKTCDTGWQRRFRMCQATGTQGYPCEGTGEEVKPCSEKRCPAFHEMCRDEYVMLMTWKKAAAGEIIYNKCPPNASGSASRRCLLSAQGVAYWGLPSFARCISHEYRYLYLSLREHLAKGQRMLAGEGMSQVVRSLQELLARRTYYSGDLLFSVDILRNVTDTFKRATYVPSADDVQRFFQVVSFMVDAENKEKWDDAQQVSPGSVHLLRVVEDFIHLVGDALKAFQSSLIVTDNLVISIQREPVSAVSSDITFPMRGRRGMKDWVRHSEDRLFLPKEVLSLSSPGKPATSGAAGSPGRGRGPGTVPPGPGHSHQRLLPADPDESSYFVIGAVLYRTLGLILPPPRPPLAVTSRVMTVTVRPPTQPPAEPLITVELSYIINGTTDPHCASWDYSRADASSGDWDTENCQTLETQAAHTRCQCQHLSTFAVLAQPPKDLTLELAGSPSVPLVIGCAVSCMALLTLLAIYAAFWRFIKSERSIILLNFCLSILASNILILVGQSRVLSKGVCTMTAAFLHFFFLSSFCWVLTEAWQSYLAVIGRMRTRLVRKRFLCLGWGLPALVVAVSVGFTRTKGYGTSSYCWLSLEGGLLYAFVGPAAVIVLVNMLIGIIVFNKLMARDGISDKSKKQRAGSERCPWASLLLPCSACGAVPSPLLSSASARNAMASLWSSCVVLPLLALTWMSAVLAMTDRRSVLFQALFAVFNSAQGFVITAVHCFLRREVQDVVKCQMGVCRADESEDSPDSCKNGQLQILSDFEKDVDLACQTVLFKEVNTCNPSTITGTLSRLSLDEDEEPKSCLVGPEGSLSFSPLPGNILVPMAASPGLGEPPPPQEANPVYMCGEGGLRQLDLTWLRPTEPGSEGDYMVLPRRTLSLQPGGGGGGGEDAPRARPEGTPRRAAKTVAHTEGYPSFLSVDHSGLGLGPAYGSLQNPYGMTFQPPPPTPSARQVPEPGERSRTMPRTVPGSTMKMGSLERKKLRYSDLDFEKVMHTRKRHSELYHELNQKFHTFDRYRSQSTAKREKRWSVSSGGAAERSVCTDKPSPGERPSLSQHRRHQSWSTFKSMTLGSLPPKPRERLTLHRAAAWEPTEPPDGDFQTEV
Experiment: Intracellular calcium concentration change assay with ph01207#3F8-17 strain: inhibition of the response to CCK-8S
Type: cell-based
Conditions: 10 nM CCK-8S, wells with buffer
Description: A compound that inhibits a response of the ph01207 gene product to a ligand was identified by an intracellular calcium concentration change assay system using the ph01207-expressing cell strain.
The ph01207-expressing cell strain was constructed as follows. First, a ph01207-expressing vector not containing an epitope tag was constructed by recombination between a ph01207 cDNA clone identified in Example 1 and pcDNA3.1 (Invitrogen) with Asp718I (Boehringer) and NotI (TAKARA). The ph01207-expressing vector was transfected into the CHO-K1 strain, a host cell, using Lipofectamine 2000 (Invitrogen), and the cells were screened for stably-expressing strains by a selective medium containing G418. Expression of the gene introduced into the cell was detected by the FCM analysis using an anti-ph01207 antibody.
As a result, a plurality of cell strains stably expressing ph01207 were obtained. A compound was identified using the ph01207#3F8-17 strain, a clone of these strains.
As a ligand, CCK-8S (Peptide Institute, Inc.) was used. […]
Compounds were specifically identified as follows. […] After reaction, CCK-8S (Peptide Institute, Inc.) and a compound was added, and changes over time in the fluorescence intensity in each well were measured for 80 sec. […] Changes over time in the fluorescence intensity were measured using the FLEX station (Molecular Device).

Change in fluorescence intensity (intracellular Ca2+) after addition of CCK-8S: increased
Substance: cholecystokinin octapeptide sulfated form [CCK-8S]
